Source: patent US20100196385A1 (AstraZeneca / MedImmune, published 2010)

Experiments:
human Dll1 = target: T1, human Dll1 (human, UniProt O00548 18-723); assay: FACS, HEK-293 cells stably overexpressing human Dll1
T1 construct: whole, on cells
T1 sequence (looked up): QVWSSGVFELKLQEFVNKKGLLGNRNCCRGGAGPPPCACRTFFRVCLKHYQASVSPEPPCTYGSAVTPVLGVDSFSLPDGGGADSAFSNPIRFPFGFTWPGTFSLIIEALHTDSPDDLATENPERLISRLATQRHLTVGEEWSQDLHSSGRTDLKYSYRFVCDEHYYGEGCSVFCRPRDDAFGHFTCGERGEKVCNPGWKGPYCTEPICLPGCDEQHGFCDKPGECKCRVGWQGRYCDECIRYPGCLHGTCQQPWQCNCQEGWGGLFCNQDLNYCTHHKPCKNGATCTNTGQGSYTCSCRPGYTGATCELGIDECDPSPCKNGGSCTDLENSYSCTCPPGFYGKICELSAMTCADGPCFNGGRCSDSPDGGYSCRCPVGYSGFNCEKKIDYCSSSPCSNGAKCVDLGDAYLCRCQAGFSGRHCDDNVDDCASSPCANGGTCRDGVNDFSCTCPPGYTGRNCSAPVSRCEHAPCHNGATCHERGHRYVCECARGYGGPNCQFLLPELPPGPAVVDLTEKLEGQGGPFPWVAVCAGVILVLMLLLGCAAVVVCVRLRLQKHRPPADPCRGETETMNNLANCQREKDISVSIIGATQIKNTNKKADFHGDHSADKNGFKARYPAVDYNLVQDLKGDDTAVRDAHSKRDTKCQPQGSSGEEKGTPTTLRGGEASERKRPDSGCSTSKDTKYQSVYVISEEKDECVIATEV

human Jagged1 = target: T2, human Jagged1 (human, UniProt P78504 34-1218); assay: FACS, HEK-293 cells stably overexpressing human Jagged1
T2 construct: whole, on cells
Protocol: The ability of the purified antibodies to bind to human Jagged1 and Dll1 was determined by FACS analysis. […] Cells were resuspended in PBS containing 2% FCS and seeded at 50000 cells/well into V-bottomed plates. Anti-DLL4 antibodies diluted in PBS containing 2% FCS were added at a final concentration of 5 or 15 μg/ml and plates were incubated for 1 h at 4° C. […] Data was analyzed by comparing the shift in geometric mean fluorescence in the mock-transfected cells to that observed in the Jagged1- or Dll1-transfected cells and is shown in Tables 16 and 17.

full length human DLL4 [1] = target: T3, full length human DLL4 (human, UniProt Q9NR61 27-685); assay: FACS competition, unlabeled antibody vs competitor Alexa-647 21H3RK, HEK293 cells with human DLL4
T3 construct: whole, on cells; also called native DLL4 expressed in HEK293 cells
Protocol: The ability of the purified DLL4 antibodies to inhibit the binding of other DLL4 antibodies to human DLL4 was assessed using a FACS assay. Briefly, antibodies were directly labelled with Alexa-647 using a commercially available labelling kit (e.g. Molecular Probes catalog #A30009, A-20186) as per the manufacturer's instructions. To determine the level of cross-competition, unlabelled anti-DLL4 antibodies (final concentration: 10-0.01 μg/ml) diluted in PBS containing 2% FCS were added to DLL4-expressing HEK 293 cells (as described in example 6; 50000 cells/well diluted in PBS containing 2% FCS) and incubated for 1 h at 4° C. Subsequently, Alexa-647 labeled anti-DLL4 antibodies were added at a final concentration of 0.1 μg/ml and plates were incubated for a further 1 h at 4° C. prior to washing and reading on a FACSCalibur instrument. Data that summarizes the ability of unlabeled antibodies (10, 1, 0.1 μg/ml) to compete with labeled 21H3RK for binding to human DLL4 is included in FIG. 3. Additional data that summarizes the ability of unlabeled antibodies to compete with labeled 21H3RK and 4B4 for binding to human DLL4 is included in Table 22.

full length human DLL4 [2] = target: T3, full length human DLL4; assay: FMAT, hybridoma supernatant, 293T cells with human DLL4; FMAT, hybridoma supernatant, native full length human DLL4 on live 293T cells, room temperature
Protocol: Cells diluted in PBS containing 2% FBS were seeded at a density of 3000 expressing and 15000 mock transfected cells per well in 384 well plates (Corning Costar, catalog #3712). Immediately after plating, 15 or 20 μl/well of hybridoma supernatants and 10 μl/well of secondary antibody (Goat anti-human IgG Fc Cy5, final concentration 750 ng/ml) were added and plates incubated for 3 h at room temperature prior to reading the fluorescence on the FMAT 8200 instrument (Applied Biosystems). The binding of human Notch1/Fc chimera (R&D systems, catalog #3647-TK), diluted 1:2 from 2.86 μg/ml was used as a positive control for DLL4 and human Notch3/Fc chimera diluted from 10 μg/ml was used a positive control for binding to Jagged1. Results for 12 hybridoma supernatants showing binding of hybridoma supernatants to human/cynomolgus monkey DLL4 and human Jagged are shown in Table 3.

full length human DLL4 [3] = target: T3, full length human DLL4; assay: FMAT competition, supernatant vs Alexa-647 human Notch1/Fc, 293T cells with human DLL4; FMAT competition with Alexa-647 human Notch1/Fc, native human DLL4 on 293T cells, 4 C, n = 2
Protocol: (§1) Transfected and untransfected 239T cells were reconstituted in PBS containing 2% FCS and 5000 transfected and 17500 non-transfected cells were plated in 20 μl into wells of a 384-well tissue culture plate (Corning Costar, catalog #3712). Subsequently, 20 μl of hybridoma supernatant was added and plates were incubated at 4° C. for 1 h, at which time 20 μl of Alexa-647 labeled human Notch1/Fc was added at a final concentration of 6.7 ng/ml. After a further 3 h incubation at 4° C., the amount of bound Notch1/Fc was determined by reading the fluorescence in each well using an FMAT 8200 instrument (Applied Biosystems). Results are expressed as % inhibitions with the minimum inhibition in the assay being determined by the effects of non-DLL4 binding supernatants prepared in a similar way as described in example 2, and the maximum inhibition being defined as the signal obtained in the presence of a saturating concentration of unlabeled Notch1/Fc. N.T.=not tested

full length human DLL4 [4] = target: T3, full length human DLL4; assay: FMAT competition, supernatant vs Alexa-647 human Notch1/Fc, 293T cells with human DLL4; FMAT competition with Alexa-647 human Notch1/Fc, native human DLL4 on 293T cells, 4 C, n = 3
Protocol: as §1

full length human DLL4 [5] = target: T3, full length human DLL4; assay: FMAT, hybridoma supernatant, 293T cells with human DLL4
Method in brief: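 Transfected 293T cells (3000 expressing plus 15000 mock-transfected per well), in PBS with 2% FBS, were mixed with hybridoma supernatant and Cy5 goat anti-human IgG Fc (750 ng/ml final). After 3 h at room temperature, binding was read by FMAT fluorescence. Notch1/Fc served as positive control for DLL4 and Notch3/Fc for Jagged1.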

T3 sequence (Q9NR61 27-685): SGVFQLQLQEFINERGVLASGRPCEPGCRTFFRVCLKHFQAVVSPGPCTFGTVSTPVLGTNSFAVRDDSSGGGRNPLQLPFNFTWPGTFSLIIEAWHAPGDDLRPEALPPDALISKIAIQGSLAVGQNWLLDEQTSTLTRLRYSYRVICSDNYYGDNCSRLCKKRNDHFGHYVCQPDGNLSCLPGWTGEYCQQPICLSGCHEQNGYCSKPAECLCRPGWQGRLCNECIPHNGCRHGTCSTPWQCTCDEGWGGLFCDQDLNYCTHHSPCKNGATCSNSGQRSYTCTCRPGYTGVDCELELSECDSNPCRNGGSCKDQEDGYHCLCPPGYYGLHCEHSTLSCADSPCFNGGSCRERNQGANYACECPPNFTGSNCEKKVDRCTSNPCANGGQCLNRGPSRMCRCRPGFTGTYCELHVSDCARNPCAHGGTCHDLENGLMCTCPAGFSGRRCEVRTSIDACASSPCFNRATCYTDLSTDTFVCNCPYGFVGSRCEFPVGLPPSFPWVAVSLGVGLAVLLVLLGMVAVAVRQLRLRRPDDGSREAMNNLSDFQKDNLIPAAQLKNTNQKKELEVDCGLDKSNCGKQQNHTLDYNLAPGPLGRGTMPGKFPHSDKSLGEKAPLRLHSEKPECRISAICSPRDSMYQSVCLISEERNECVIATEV
T2 sequence (P78504 34-1218): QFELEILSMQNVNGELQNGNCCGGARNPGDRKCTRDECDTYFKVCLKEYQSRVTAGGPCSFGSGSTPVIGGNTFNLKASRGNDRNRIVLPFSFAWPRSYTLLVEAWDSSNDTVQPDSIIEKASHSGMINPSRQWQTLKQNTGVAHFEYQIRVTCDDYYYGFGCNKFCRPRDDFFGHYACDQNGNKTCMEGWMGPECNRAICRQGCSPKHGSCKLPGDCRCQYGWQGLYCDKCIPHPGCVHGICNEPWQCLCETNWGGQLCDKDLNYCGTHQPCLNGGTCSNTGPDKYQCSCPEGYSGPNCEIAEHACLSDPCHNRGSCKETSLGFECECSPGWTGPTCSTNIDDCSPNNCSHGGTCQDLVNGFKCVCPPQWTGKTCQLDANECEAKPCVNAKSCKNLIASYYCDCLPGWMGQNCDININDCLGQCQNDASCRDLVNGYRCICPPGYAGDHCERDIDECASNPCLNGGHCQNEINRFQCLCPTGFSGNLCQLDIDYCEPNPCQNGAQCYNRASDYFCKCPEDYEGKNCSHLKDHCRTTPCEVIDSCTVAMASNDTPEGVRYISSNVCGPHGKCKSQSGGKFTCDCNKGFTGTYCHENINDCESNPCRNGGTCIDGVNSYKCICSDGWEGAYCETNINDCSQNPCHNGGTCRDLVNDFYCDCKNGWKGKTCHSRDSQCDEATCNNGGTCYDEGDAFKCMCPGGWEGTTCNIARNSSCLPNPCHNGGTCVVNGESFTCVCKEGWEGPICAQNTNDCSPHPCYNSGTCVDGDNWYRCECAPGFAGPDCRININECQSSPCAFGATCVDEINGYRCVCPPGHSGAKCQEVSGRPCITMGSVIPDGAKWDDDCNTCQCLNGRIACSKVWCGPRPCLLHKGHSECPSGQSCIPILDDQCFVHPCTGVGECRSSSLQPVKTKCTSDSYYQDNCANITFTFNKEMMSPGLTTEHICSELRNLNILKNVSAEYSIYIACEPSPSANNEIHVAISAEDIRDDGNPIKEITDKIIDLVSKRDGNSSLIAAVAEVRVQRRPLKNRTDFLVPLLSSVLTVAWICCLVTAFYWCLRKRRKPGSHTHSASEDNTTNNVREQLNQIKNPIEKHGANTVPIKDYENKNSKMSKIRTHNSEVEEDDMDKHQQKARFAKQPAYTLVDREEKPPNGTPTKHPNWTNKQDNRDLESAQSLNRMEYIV

Binder | binding result (human Dll1) | binding result (human Jagged1) | IC50 (full length human DLL4 [1]) [µg/mL] | Count (full length human DLL4 [2]) | FL1 (full length human DLL4 [2]) | FL1 x count (full length human DLL4 [2]) | % inhibition n = 2 (full length human DLL4 [3]) [%] | % inhibition n = 3 (full length human DLL4 [4]) [%] | Count (full length human DLL4 [5]) | FL1 (full length human DLL4 [5]) | FL1 x count (full length human DLL4 [5])
4B4 (antibody, IgG4, V domains shown, Fully human; used for IgG4 rows and where no isotype is printed; also called 4B4 IgG4; 4B4.1) VH: QVLLIQSGAEVKKPGASVQVSCKASGYTFTNYGVIWVRQAPGQGLEYMGWISAYNGNTNYAQKLQDRVTMTSDTSTTTAYMELRSLRSDDTAVYYCARELGSSFDYWGQGTLVTVSS VL: SYELTQPPSVSVSPGQTARITCSGDALPKKYAYWYQQKSGQAPVLVIYEDIKRPSGIPERFSGSSSGTMATLTISGAQVEDEADYYCFSTDNSGDHSVFGGGTKLTVL | no binding | no binding | 0.379 | 194 | 9930 | 1.93e+06 | 109 | 148 |  |  | 
2H10 (antibody, IgG4, V domains shown, Fully human; used for IgG4 rows and where no isotype is printed; also called 2H10 IgG4) VH: QVQLVESGGGVVQPGRSLRLSCAASGFTFSRHGMHWVRQAPGKGLEWVAVVWFDGSNIYYADSVKGRFTISRDNSKNTLYLQMNSLRAEDTAMYYCARDSRIAAADYWGQGTLVTVSS VL: SYELTQPPSVSVSPGQTVSITCSGDKLGDKYVCWYQQKPGQSPVLVIYQESKRPSGIPERFSGSSSGNTATLTISGTQAMDEADYYCQTWDSSLVVFGGGTKLTVL | no binding | no binding | 0.723 |  |  |  |  |  | 191 | 10800 | 2.06e+06
9G8 (antibody, IgG4, V domains shown, Fully human; used for IgG4 rows and where no isotype is printed; also called 9G8 IgG4) VH: QLQLQESGPGLVKPSETLSLSCTVSGGSISSSSSYWGLIRQPPGKGLEWIGSIYYSGSTYYSPSLKSRVSISVDTSKNQFSLKLSSVTAADTAVYFCARQGYGGHPDVFDIWGQGTMVTVSS VL: SSELTQSPSVSVSPGQTARITCSGDKLGDVYVCWYQQKTGQSPVLVIYEDTKRPSGIPERFSGSNSGNTATLTISGTQVMDEADYYCQAWDSTTAVIFGGGTKLTVL |  |  | 0.596 |  |  |  |  |  | 198 | 9810 | 1.94e+06
21H3 (antibody, IgG4, V domains shown, Fully human; used for IgG4 rows and where no isotype is printed; also called 21H3 IgG4) VH: QVQLVQSGAEVKKPGASVKVSCKASGYTFTNYGITWVRQAPGQGPEWMGWISAYNGNTNYAQKLQDRVTVTTDTSTSTAYMELRSLRSDDTAVYYCARDRVPRIPVTTEAFDIWGQGTMVTVSS VL: QSVLTQPPSASGTPGQRVTISCSGSSSNIGSYFVYWYQQLPGTAPKLLIYRNNQRPSGVPDRFSGSESGTSASLAISGLRSEDEADYYCAAWDDSLSGHWVFGGGTRLTVL |  |  | 0.248 | 181 | 10500 | 1.91e+06 | 131 | 140 |  |  | 
